{"source": "patent US6869925", "about": "(Amgen, dated 2005)", "key": {"[1]": {"target": "SLPI binding sites on HuT78 cells (human T cell line) (human)", "assay": "competition with 125I-SLPI, intact HuT78 cells, cold SLPI at 84 nM"}, "[2]": {"target": "SLPI binding sites on U937 cells (human monocyte cell line; intact cells, PMA-induced cells or plasma membranes) (human)", "assay": "125I-SLPI saturation binding, U937 cells plus PMA, *SLPI at 2,560 pM"}, "[3]": {"target": "SLPI binding sites on HuT78 cells (human T cell line) (human)", "assay": "competition with 125I-SLPI, intact HuT78 cells, cold SLPI at 0.25 nM"}, "[4]": {"target": "SLPI binding sites on U937 cells (human monocyte cell line; intact cells, PMA-induced cells or plasma membranes) (human)", "assay": "competition with 125I-SLPI, U937 plasma membranes, competitor at 2.56 nM"}, "[5]": {"target": "SLPI binding sites on U937 cells (human monocyte cell line; intact cells, PMA-induced cells or plasma membranes) (human)", "assay": "competition with 125I-SLPI, intact U937 cells, competitor at 0.80 nM"}, "[6]": {"target": "SLPI binding sites on U937 cells (human monocyte cell line; intact cells, PMA-induced cells or plasma membranes) (human)", "assay": "competition with 125I-SLPI, intact U937 cells, competitor at 860 nM"}, "[7]": {"target": "SLPI binding sites on HuT78 cells (human T cell line) (human)", "assay": "125I-SLPI saturation binding, intact HuT78 cells, *SLPI at 20,480 pM"}, "[8]": {"target": "SLPI binding sites on U937 cells (human monocyte cell line; intact cells, PMA-induced cells or plasma membranes) (human)", "assay": "125I-SLPI saturation binding, intact U937 cells, *SLPI at 160 pM"}, "[9]": {"target": "SLPI binding sites on U937 cells (human monocyte cell line; intact cells, PMA-induced cells or plasma membranes) (human)", "assay": "Scatchard plot of 125I-SLPI saturation binding, intact U937 cells"}, "[10]": {"target": "SLPI binding sites on U937 cells (human monocyte cell line; intact cells, PMA-induced cells or plasma membranes) (human)", "assay": "competition with 125I-SLPI, U937 plasma membranes, competitor at 83.9 nM"}, "[11]": {"target": "SLPI binding sites on U937 cells (human monocyte cell line; intact cells, PMA-induced cells or plasma membranes) (human)", "assay": "Scatchard plot of 125I-SLPI saturation binding, PMA-induced U937 cells"}, "[12]": {"target": "SLPI binding sites on U937 cells (human monocyte cell line; intact cells, PMA-induced cells or plasma membranes) (human)", "assay": "competition with 125I-SLPI, intact U937 cells, competitor at 0 nM"}, "[13]": {"target": "SLPI binding sites on HuT78 cells (human T cell line) (human)", "assay": "competition with 125I-SLPI, intact HuT78 cells, cold SLPI at 26 nM"}, "[14]": {"target": "SLPI binding sites on U937 cells (human monocyte cell line; intact cells, PMA-induced cells or plasma membranes) (human)", "assay": "competition with 125I-SLPI, intact U937 cells, competitor at 2750 nM"}, "[15]": {"target": "SLPI binding sites on HuT78 cells (human T cell line) (human)", "assay": "125I-SLPI saturation binding, intact HuT78 cells, *SLPI at 80 pM"}, "[16]": {"target": "SLPI binding sites on U937 cells (human monocyte cell line; intact cells, PMA-induced cells or plasma membranes) (human)", "assay": "125I-SLPI saturation binding, intact U937 cells, *SLPI at 80 pM"}, "[17]": {"target": "SLPI binding sites on U937 cells (human monocyte cell line; intact cells, PMA-induced cells or plasma membranes) (human)", "assay": "competition with 125I-SLPI, intact U937 cells, competitor at 0.078 nM"}, "[18]": {"target": "SLPI binding sites on U937 cells (human monocyte cell line; intact cells, PMA-induced cells or plasma membranes) (human)", "assay": "competition with 125I-SLPI, intact U937 cells, cold SLPI at 0.00 nM"}, "[19]": {"target": "SLPI binding sites on HuT78 cells (human T cell line) (human)", "assay": "125I-SLPI saturation binding, intact HuT78 cells, *SLPI at 5120 pM"}, "[20]": {"target": "SLPI binding sites on U937 cells (human monocyte cell line; intact cells, PMA-induced cells or plasma membranes) (human)", "assay": "125I-SLPI saturation binding, U937 cells minus PMA, *SLPI at 640 pM"}, "[21]": {"target": "SLPI binding sites on U937 cells (human monocyte cell line; intact cells, PMA-induced cells or plasma membranes) (human)", "assay": "competition with 125I-SLPI, intact U937 cells, cold SLPI at 0.80 nM"}, "[22]": {"target": "SLPI binding sites on U937 cells (human monocyte cell line; intact cells, PMA-induced cells or plasma membranes) (human)", "assay": "125I-SLPI saturation binding, U937 cells minus PMA, *SLPI at 320 pM"}, "[23]": {"target": "SLPI binding sites on HuT78 cells (human T cell line) (human)", "assay": "competition with 125I-SLPI, intact HuT78 cells, competitor at 2.6 nM"}, "[24]": {"target": "SLPI binding sites on elutriated human peripheral blood monocytes (human)", "assay": "125I-SLPI binding to intact monocytes"}, "[25]": {"target": "SLPI binding sites on U937 cells (human monocyte cell line; intact cells, PMA-induced cells or plasma membranes) (human)", "assay": "125I-SLPI saturation binding, U937 cells plus PMA, *SLPI at 80 pM"}, "[26]": {"target": "SLPI binding sites on U937 cells (human monocyte cell line; intact cells, PMA-induced cells or plasma membranes) (human)", "assay": "competition with 125I-SLPI, intact U937 cells, cold SLPI at 0.25 nM"}}}
{"substance": "serine leukocyte protease inhibitor (SLPI) (from UniProt P03973 26-132)", "values": [{"measurement": "% *SLPI BOUND", "setting": "[1]", "result": 9.3, "unit": "%"}, {"measurement": "bound pM", "setting": "[2]", "result": 215, "unit": "pM"}, {"measurement": "bound per free", "setting": "[2]", "result": 0.092}, {"measurement": "sites bound per cell (sites per cell)", "setting": "[2]", "result": 12900}, {"measurement": "specific cpm", "setting": "[2]", "result": 2300, "unit": "cpm"}, {"measurement": "% *SLPI BOUND", "setting": "[3]", "result": 69, "unit": "%"}, {"measurement": "CPM *SLPI BOUND", "setting": "[4]", "result": 11000, "unit": "cpm"}, {"measurement": "% *SLPI BOUND", "setting": "[5]", "result": 78, "unit": "%"}, {"measurement": "% *SLPI BOUND", "setting": "[6]", "result": 4, "unit": "%"}, {"measurement": "bound pM", "setting": "[7]", "result": 30.3, "unit": "pM"}, {"measurement": "bound per free", "setting": "[7]", "result": 0.0015}, {"measurement": "sites bound per cell (sites per cell)", "setting": "[7]", "result": 1820}, {"measurement": "specific cpm", "setting": "[7]", "result": 1210, "unit": "cpm"}, {"measurement": "bound *SLPI (pM)", "setting": "[8]", "result": 32.9, "unit": "pM"}, {"measurement": "bound per free", "setting": "[8]", "result": 0.259}, {"measurement": "sites bound per cell (sites per cell)", "setting": "[8]", "result": 1980}, {"measurement": "specific cpm", "setting": "[8]", "result": 1320, "unit": "cpm"}, {"measurement": "Kd", "setting": "[9]", "result": 2, "unit": "nM"}, {"measurement": "CPM *SLPI BOUND", "setting": "[10]", "result": 2070, "unit": "cpm"}, {"measurement": "Kd", "setting": "[11]", "result": 1, "unit": "nM"}, {"measurement": "% *SLPI BOUND", "setting": "[12]", "result": 109, "unit": "%"}, {"measurement": "% *SLPI BOUND", "setting": "[13]", "result": 37, "unit": "%"}, {"measurement": "% *SLPI BOUND", "setting": "[14]", "result": 4, "unit": "%"}, {"measurement": "bound pM", "setting": "[15]", "result": 0.75, "unit": "pM"}, {"measurement": "bound per free", "setting": "[15]", "result": 0.0095}, {"measurement": "sites bound per cell (sites per cell)", "setting": "[15]", "result": 45}, {"measurement": "specific cpm", "setting": "[15]", "result": 30, "unit": "cpm"}, {"measurement": "bound *SLPI (pM)", "setting": "[16]", "result": 13.6, "unit": "pM"}, {"measurement": "bound per free", "setting": "[16]", "result": 0.205}, {"measurement": "sites bound per cell (sites per cell)", "setting": "[16]", "result": 819}, {"measurement": "specific cpm", "setting": "[16]", "result": 543, "unit": "cpm"}, {"measurement": "% *SLPI BOUND", "setting": "[17]", "result": 111, "unit": "%"}, {"measurement": "% *SLPI BOUND", "setting": "[18]", "result": 94, "unit": "%"}, {"measurement": "bound pM", "setting": "[19]", "result": 13.5, "unit": "pM"}, {"measurement": "bound per free", "setting": "[19]", "result": 0.0026}, {"measurement": "sites bound per cell (sites per cell)", "setting": "[19]", "result": 813}, {"measurement": "specific cpm", "setting": "[19]", "result": 538, "unit": "cpm"}, {"measurement": "bound *SLPI (pM)", "setting": "[20]", "result": 207, "unit": "pM"}, {"measurement": "bound per free", "setting": "[20]", "result": 0.478}, {"measurement": "sites bound per cell (sites per cell)", "setting": "[20]", "result": 12500}, {"measurement": "specific cpm", "setting": "[20]", "result": 2210, "unit": "cpm"}, {"measurement": "% *SLPI BOUND", "setting": "[21]", "result": 77, "unit": "%"}, {"measurement": "bound *SLPI (pM)", "setting": "[22]", "result": 101, "unit": "pM"}, {"measurement": "bound per free", "setting": "[22]", "result": 0.461}, {"measurement": "sites bound per cell (sites per cell)", "setting": "[22]", "result": 6080}, {"measurement": "specific cpm", "setting": "[22]", "result": 1080, "unit": "cpm"}, {"measurement": "% *SLPI BOUND", "setting": "[23]", "result": 76, "unit": "%"}, {"measurement": "*SLPI concentration at saturation (micrograms/ml)", "setting": "[24]", "result": 0.5}, {"measurement": "*SLPI concentration required for half-maximal binding", "setting": "[24]", "result": 10, "unit": "nM"}, {"measurement": "bound pM", "setting": "[25]", "result": 32, "unit": "pM"}, {"measurement": "bound per free", "setting": "[25]", "result": 0.67}, {"measurement": "sites bound per cell (sites per cell)", "setting": "[25]", "result": 1910}, {"measurement": "specific cpm", "setting": "[25]", "result": 339, "unit": "cpm"}, {"measurement": "% *SLPI BOUND", "setting": "[26]", "result": 92, "unit": "%"}]}
